These results are taken from patent US20070248604A1 (Genentech, published 2007).

Where only a bound is given, the exact number is not on record here.

The target in assay [1] is T1, FGF19 protein (human, UniProt O95750 25-216, limits assumed).
T1 construct: 125I-labelled for the Scatchard analysis. 'Human' is stated for hu FGF-19-His and for the anti-human FGF19 antibodies, not in these assay descriptions; also called Fibroblast growth factor 19; [125I]FGF19
Description: solid phase receptor binding assay: FGF19 binding to captured FGFR4-Fc with antibody present; solid phase receptor binding assay, blocking of FGF19 binding to FGFR4. As to the method: (§1) Maxisorb 96 well plates were coated overnight at 4° C. with 50 μl of 2 μg/ml anti-human immunoglobulin Fcγ fragment specific antibody (Jackson Immunoresearch) and used to capture 1 μg/ml FGFR-Fc chimeric proteins (R & D Systems).

In assay [2] the target is T2, hu FGF-19-His (human, UniProt O95750 25-216, limits assumed).
T2 construct: Analyte in SPR; Construct limits and tag not described; not shown: His tag
T2 sequence (O95750 25-216 limits assumed): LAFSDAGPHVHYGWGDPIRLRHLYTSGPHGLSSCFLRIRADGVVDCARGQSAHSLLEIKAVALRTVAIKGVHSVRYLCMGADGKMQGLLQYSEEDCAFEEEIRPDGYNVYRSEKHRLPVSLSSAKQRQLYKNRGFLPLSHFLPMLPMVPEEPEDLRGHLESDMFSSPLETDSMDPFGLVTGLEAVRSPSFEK
The assay is described as follows: SPR, BIAcore-3000, antibody coupled to CM5 chip (~500 RU), FGF19-His injected 0.7-500 nM, 25 C, 1:1 Langmuir model. As to the method:
Briefly, carboxymethylated dextran biosensor chips (CM5, BIAcore Inc.) were activated with N-ethyl-N′-(3-dimethylaminopropyl)-carbodiimide hydrochloride (EDC) and N-hydroxysuccinimide (NHS) according to the supplier's instructions. […] Next, 1M ethanolamine was injected to block unreacted groups. […] Association rates (kₒₙ) and dissociation rates (koff) were calculated using a simple one-to-one Langmuir binding model (BIAcore Evaluation Software version 3.2).

Assay [3] concerns the target T2, hu FGF-19-His. Description: ELISA, FGF19-His captured on nickel plates, HRP anti-mouse IgG detection; ELISA binding EC50. From the text:
(§2) Non-specific binding sites of HisGrab Nickel coated plates (Pierce) were saturated with PBS/3% BSA. […] The bound antibodies were detected using a HRP conjugated anti-mouse IgG (Jackson Immunoresearch) and the TMB peroxydase colorigenic substrate (KPL).
In general terms: ELISA stands for enzyme-linked immunosorbent assay.

Assay [4] has as its target T2, hu FGF-19-His. The assay is described as follows: solid phase antibody binding assay: FGF19-His captured on nickel coated plates, HRP anti-mouse IgG.
From the text: as §2

The target in assay [5] is T1, FGF19 protein. Description: solid phase receptor binding assay, blocking: FGF19 binding to captured FGFR4-Fc with antibody titrated. On the procedure: as §1

T1 sequence (O95750 25-216 limits assumed): as above

B1: mouse anti-human FGF19 monoclonal antibody 1A6 (antibody, V domains shown)
VH: QVQLKQSGPGLVQPSQSLSITCTVSGFSLTTYGVHWVRQSPGKGLEWLGVIWPGGGTDYNAAFISRLSITKDNSKSQVFFKMNSLLANDTAIYFCVRKEYANLYAMDYWGQGTLLTVSA
VL: DIKMTQSPSSMYASLGERVTIPCKASQDINSFLSWFQQKPGKSPKTLIYRANRLVDGVPSRFSGSGSGQDYSLTISSLEYEDMGIYYCLQYDEFPLTFGAGTKVEIKR
notes: Mouse hybridoma monoclonal antibody, purified from ascites on protein A-agarose; also called anti-FGF19 mab 1A6; anti-FGF19 Mab 1A6
Turning to B1, the IC50 (commonly the concentration that gives 50% inhibition) with FGF19 protein [1] was 3 nM. In the assay with hu FGF-19-His [2], the Kd (usually the equilibrium constant for the complex coming apart) was below 0.009 nM. A half-maximal effect with hu FGF-19-His [3] (EC50) was put at 0.04 nM. Moreover, in the assay with hu FGF-19-His [4], the EC50 (read off the curve) (in general, the midpoint of the concentration-response curve) was around 0.03 µg/mL. In addition, the “IC50 (read off the curve)” value with FGF19 protein [5] is around 0.5 µg/mL.
